Earlier results, collected in PMC3164524.

Target: pYAQL peptide
Assay: SPR

- Kd: 260 nM
Substance: SHP-2 N-SH2 (from UniProt Q06124)
